Assay results published in the nanobody polyreactivity screen of Harvey et al. (2022).

Assay: yeast display, Sf9 membrane polyspecificity reagent, FACS + sequencing; frameworks hold sequencing errors
How it was run: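 Nanobodies came from a synthetic yeast display library in Saccharomyces cerevisiae BJ5465, induced with galactose for 36–48 hours and stained for 1 hour at 4 °C with 10% biotinylated, detergent-solubilized Sf9 membrane reagent. Cells were enriched on streptavidin microbeads and then FACS-sorted, with low and high (top ~1%) gates set on anti-HA fluorescence for expression and streptavidin fluorescence for reagent binding. Each polyreactivity label reflects the gate a clone came from. Genes were amplified by colony PCR, sequenced by MiSeq 2 × 250 and filtered by CDR length.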

| Sequence | polyreactivity (PSR sort gate) |
| --- | --- |
| QVQLVESGGGLVQAGGSLRLSCAASGRIFSWYTMGWYRQAPGKERELVASITTGGRTYYADSLKGRFTNSRDNAKNTVYLQMNSLKPEDTAVYSCIVLSTLFGYYRWGDYWGQGTQVTVSS | high polyreactivity |
| QVQLVESGGGLVQAGGRLRLSCAASGSIFQFYAMGWYRQAPGKERELVAAINWSGGSTYYADSVKGRFTISRDNAKNTVYLQMNSLKPEETAVYYCNALRRIGRYYKAGGYGYWGQGTQVTVSS | high polyreactivity |
| QVQLVESGGGLVEAGGSLRLSCAASGRIFKVYAMGWYRQGPGKERELVAAISRSCGSTYYADSVKGRFTISRDKAKITVSLQMNSLKPEDTAVYYCNAYFVSGHAGGYDYWGQGTQVTVSS | high polyreactivity |
| QVQLVESGAGLVQAGGSLRLSCAASGSIFGSYAMGRDRQAPGKERELVAGITYRGSSTYYAESVKGRFTISRDNAKNTVYLQMNSLKPEATAVYYCAADPVFDEYDYWGQGTQVTVSS | low polyreactivity |
| QVQLVESGGGLVQAGGSLRLSCAASGSTFWGYTMGWYRQAPGKERELVAAITSGGSTNYADSVKGRFTISRDNAKNTVYLQMNSLKPEDTAVYYCNAVYPGRRRYRKWYIYDYWGQGTQVTVSS | high polyreactivity |
| QVQLVESGGGLIQAGGSLRLSCAASGIIFYPYTMGWYRPAPGKERELVAAIRQSGTSTYYADSVKGRFTISRDNAKKTVYFQMNSLKPEDTAVYYCNADDHIYWRKGYDYWGQGTQVTVSS | low polyreactivity |
| QVQLVESGGGLVQAGGSLRLTCAASGSTFISYAMGWYRPAPGKERELVAAISRRGDSTYYADSVKGRFTISRDNAKYTVYLQMKSLKPEDTAVYYCAADSYPAYLGFVGFDYWRQGTQVTVSS | low polyreactivity |
| QVQLVESGGGLVQAGGSLRLSCAASGFTLGTNTMGWYRQAPGKEREFVAAISGRGSSTYYADSVKGRFTISRDNAKNTVYLQMNSLKPEDTAVYYCNKVFWPHPKVVTGNYWGQGTQVTVSS | high polyreactivity |
| QVQLVESGGGLVQAGGSLRLSCAASGITFYYYAMGWYRQAPGKERELVAAISFRGGSTYYADSVKGRFTISRDNAKNTVYLQMNSLKPEDTAVYYCAKAWSYTDPPRGDYWGQGTQVTVSS | high polyreactivity |
| QVQLVESGGGLVQAGGSLRLSCAASGRTFRYNDRGWYRQAPGKERELVASISRISGSTYYADSVKGRFTISRDNAKNTVYLQMNSLKAEVTAVFYCAATVKLKQYPYFGFGYWGQGTQVTVSS | high polyreactivity |
| QVQLVESGGGLVQAGGSLRLSCAASGRTYFYNTMGWYRQAPGKESELVARITRGGSTYYADSVKGRFTISRDNAKNTVYLQMPSLKPEDTAFYYCAAGYWRGYFLYGFDYWGQGTQVTVSS | high polyreactivity |
| QVQLVESGGGLVQAGGSLRLSCAASGSIFGGNAMGWSRQAPGKERELVAVITSGGSTYYADSVKGRFTISRDNAKNTVYLQMNSLKPEDTAVYYCNVDRLARKAHYDYWGQGTQVTVSS | high polyreactivity |
| QVQLVESGGGLVQAGGSHRVSCAASGSTFDRYTMGWYRQAPGTERELVAAISISGGSTYYADSVKGRFTISRDNAKNTVYVQMNSLKPEDTAVYYCAARLDTVTDYYYWGQGTQVNVSS | low polyreactivity |
| QVQHVESGGGLVQAGGSLRLSCAASGLIFVRYAMGWYRQAPGKERELVATITWSGGTTYADSVKGRFTISRDNAKNTVYLQMNSLKPEDTAVYYCAVEWPAWTDSDYPVGGHAFGYWGQGTQVTVSS | low polyreactivity |
| QVQLVESGGGLVQAGGSLRLSCAASGRTFDYYAMGWYRQAPGKERELVAAITSGGSTYYADSVKGRFTISRDNAKNTDYLQMNSLKPEDTAVYYCAKSWALTRGYGSRYYVYRYDYWGQGTQVTVSS | low polyreactivity |
| QVQLVESGGGLVQAGCSLRLICAASRSTFTDNAMGWYRQAPGKESELVAAISTGTSTYADSVKGRFTISRDNATNTVYLQMNRLKPEDTAGYYCAADVGIRPLNYHPYNYWGQGTQVTVSS | low polyreactivity |
| QVQLVESGGGLVQAGGSLRLSCAASGSIFTYNAMGWYRQAPGKERELVATISDGGSTYYADSVKGRFTISRDNAKNTVYLQMNSLKPEDTAVYYCNKDRVSVRYEYWGQGTQVTVSS | low polyreactivity |
| QVQLVESGGGLVQAGGSLRLSCAASGFTFRYYAMGWYRQAPGQERELVAAITRGAGSTYYADSVKGRFTISRDNAKNTDYFQMNSLKPEDTAVYYCAAEFFQYYVATPFDPSNYWGQGTQVTVSS | low polyreactivity |
| QDQLVESGGGLVQAGGSLRLSCAASGRNFSYYAMGWYRQAPGKERELVAAIRWSGGRTYYADSVKGRFTISRDNAKNTVYLQMNSLKPEDTAVYYCAAEGAYRLAYDSWGQGTQVTVSS | high polyreactivity |
| QDQLVESGGGLVQAGGSLRLSCAASGRTFWVYAMGWYRQAPGKERELVAAIRRGGITNYADSVKGRFTISRDNAKNTVYLQMNSLKPEDTAVYYCATDNYGYLTRYYYWGQGTQVTVSS | low polyreactivity |
| QVQLVESGGGLVQAGGSLRLSCAASGFIFSSYAMGWYRPAPGKERELVAAISKSGDRTSYADSVKGRFTISRDNAKNTVYLQMNSLKPEDTAVYYCNAKYWGYSHHVIWYDYWGQGTQVTVSS | high polyreactivity |
| QVHLVESGGGLVQAGGSLRLSLAASGRIFGGYAMGWYRQAPGKERELVAGITNTGDTYYADSVKGRFTISRDNAKNNVYLQMNSLKPEDTAVYYCNAEGDKRRDRYDYWGQGTQVTVSS | low polyreactivity |

| Sequence | polyreactivity (PSR sort gate) |
| --- | --- |
| QVQLVESGGGLVQAGGSLRLSCAASGSTFDYYPMGWYRQAPGKERELVAGIDSAGSTNYADSVKGRFTISRDNAKNTVYLQMNSLKTGRYRGLYCNVGKTITTYAFPTFDYWGQGTQVTVSS | low polyreactivity |
| QVQLVESGGGLVQAGGSLRLSCAASGRTFYFYAMGWYRQAPGKERELVADIRGITGSTYYADSVKGRFTISRDNAKNTVYLQMNSLKPEDTAVYYCAADQYLGRAWRGRGYYWGQGTQVTVSS | high polyreactivity |
| QVQLVESGGGLVQAGGSLRLSCAASGSIFAGNAMGWYRQAPGKERELVAAITFSAGRTSYADSVKGRFTISRDNAKNTVYLQMNSLKPEDTAVYYCAARYRTDYYPEYDYWGQGTQVTVSS | low polyreactivity |
| QVQLVDSGGGLVQAGGSLRLSCAASGFILGSNVMGWYRQAPGIERELVAAISYSGGSTYYADSVKGRFTISRDNAMNTVYLQMNILKPEDTAVYYCNARPSDVWYYYWGQGTQVTVSS | low polyreactivity |
| QVQLVESGGGLVQAGGSLRLSSAASGYIFDLNAMGRYRQAPGKERELVAAISTGGGTYYADSVKGRFTISRDNAKNTVYLQMNSLKPEDTAVYYCAADWGYWYAEYDYWGQGTLVTVSS | low polyreactivity |
| QVQLVESAGGLVQAGGSLRLSCAASGITFSYYTMGWYRQAPGKEREFVATIRRGGSTNYADSVKGRFTISRDNAKNTVYLQMNSLKPEDTAVYYCAADLRRNGWGFDYWGQGTQVTVSS | high polyreactivity |
| QVQLVESGGCLVQAGGSLRLSCAASGRTLGYYTMGWYRQAPGKERELVATITPGGSTSYADSVKGRFTISRDNAKNTVYLQMNSLKPEDTAVYYCARTRPYYLLYSSNFRYDYWGQGTQVTVSS | high polyreactivity |
| QVQLVESGGGLVQAGGSLRLSCAASGFTFNYAMGWYTQAPGKERELVAAISSAGTTYYADSVKGRFTISRDNAKNTVYLQMNSLKPEDTAVYYCAALARPKQDRYRYYYWGQGTQVTVSS | high polyreactivity |
| QLQLVESGGGLVQAGGRLRLSCAASGLTFQYNAMGWYRQAPGKERELVASINSGGSTDYADSVKGRFTISRDNAKNTVYLQMNRLKQEDTAVYYCASSGYWYSASYGYEYWGQGTQVTVSS | low polyreactivity |
| QVQLVESGGGLVQAGGSLRLSCAASGFIFPRYAMGWYRQAPGKERELVADISYSGGSTYYADSVKGRFTISRDNAKNTVYLQMNSLKPEDTAVYRPYAFGYWGQGTQVTVSS | high polyreactivity |
| QVQLVESGGALVQAGGSLRLSCAASGSTFRRYAMGRYRQAPGKERELVAAISYGGGTTYYADSVKGRFTISRDNAKNTVYLQMNSLKPEDTAVYYCAARGPYGYVLLYYWGQGTQVTVSS | high polyreactivity |
| QVQLVESGGGLVQAGGSLSLSCAATGSIFGGNAMGWKRQAPGKERELVATITDRGSSTYYADSVKGRFTISRDNAKNTVYLRMHSLNPDDTAVYYCANAFPDVPEHDYGGQGTQVTVSS | low polyreactivity |
| QVQLVESGGGLVQAGGSLRISCAASGSNFIRYAKGWYRQAPGKEMELVAAIRWSAGSTSYADSVKGRFTISRDNAKNTVYLQMNSLKPEDTAVYYCAAGPDYGWRRYDYWGQGTQVTVSS | low polyreactivity |
| QVQHEESGGGLVQAGASLRLSCAPSGRILLYNAMGCYRQAPGKERELVAAISSTGGRTYYADSVKGRFTISRDNAKNTFYLQMNSLKPEDTAVYYCAADYYWSLHQRMDYWGQGTQVTVSS | high polyreactivity |
| QVQLVESGGGLVQAGGSLRLRCAASGRTFWKNAMGWYRQEPRKECELVAAISWGGGSTYYADSVKGRFTISRDNAKNTVYLQMNSLKPEDTAVYYCNVYYRRVLLGFYYWGQGTQVTVSS | low polyreactivity |
| QVQLVESGGGLVQAGGSLRLSCAASGRTFYGYAMGWYRQAPGNERELVATITRRGGSTYYADSVKGRFRISRDNAKNTVYLQMNSLKPEDTAVYYCARQGDQYYRDGDDYWGQGTQVTVSS | high polyreactivity |
| QVQLVESGGGLVQAGGSLRLSCAASGFIFVSYAMGWDRQAPGKERELVATITWGGGSTYYADSVKGRFTISRDNAKNTVYLQMNSLKPVDTAVYYCAADYPYSPIFDRYVEYEYWGQGTQVTVSS | low polyreactivity |
| QVQLVESGGGLVQAGGSLRLSCAASGITFGSNAMGWYRQAPGKERELVAAIRYSTGSTYYADSVKGRFTISRDNAKNTVYLQMNRLKPEDTAVYYCAKGKNRYTWYGMGYWGQGTQVTVSS | high polyreactivity |
| QVQLVESGGGLDQARGSLRLSCAASGYTFYRNAMGWYRQAPGKVRELVAAIRDDGSTYYADSVKGRFTISRDNAKNTVYLHMNSLKPADTAVYYCNRDYPYIWHKGARYWHDNDYWGQGTQVTVSS | low polyreactivity |
| QVQLVESGGGLVQAGGSLRLSCAASGSIFYWNAMGWYRQAPGKERELVAAISSSGSSTYYADSVKGRFTISRDNAKNTVYLQMNSLKPEDTAVYYCAADNYNSGGTRHMYYWGQGTQVTVSS | high polyreactivity |
| QVQLVESGGGLVQAGGSLRLSCAASGSTFDYYAMGWYRQAPGKERELVGVISSSGGSTYYADSVKGGFTISRDNAKNTVYLQMNSLKPEDTAVYYCAALYRNYGSSYAYYYWGQGTQVTVSS | low polyreactivity |
